Reference: patent US8519051B2, “Block copolymer for drug conjugates and pharmaceutical composition” (priority 2006, dated 2013)
Structures can show the parent of a compound that is named as a salt. Where two headings read alike, the source gives them in different places.

Experiments:
in vivo = conditions: rat, 1 mg/kg
Protocol: Two compounds, i.e., the conjugate (13 DOX) obtained in Example 5a and MeO-PEG-pAsp (Hyd-DOX, Bn) (8 DOX) (Example 5b) prepared in method pursuant to Example 5a and having a different amount bound of DOX were used. An amount between 10-20 mg of each polymer was weighed accurately into a sample vial, to which 1 ml of dichloromethane was added to completely dissolve the polymer. Then, under the stream of nitrogen, the solvent was evaporated to prepare the polymer in the film form. Under reduced pressure, it was further dried at room temperature for 1 hour, and then 20 mM sodium phosphate buffer (pH 7.4)/5%(w/v) glucose was added to a polymer concentration of 10 mg/ml to hydrate the polymer film at 4° C. After stirring overnight at 4° C., it was subjected to ultrasonic treatment in ice chilled water for 10 minutes using the Biodisruptor (Nihonseiki Kaisha Ltd., High Power Unit). Subsequently, it was filtered with a 0.22 μm filter (Millipore, Millex™ GP PES) to prepare a micelle of the filtrate, which was used in the subsequent experiment.
To male Wistar rats (Charles River Laboratories Japan, Inc., 6-7 weeks old) under ether anesthesia, the above two micelles were administered into the tail vein under the following condition (n=3). Heparin-coated syringes were used to collect blood, and after centrifuging the blood drawn at 4° C., plasma was collected and stored at −30° C. until use.
Dose: 1 mg/kg in terms of the amount of DOX
Blood drawing timing: 5 minutes, 1, 3, 6, 9, 24, 48 hours after administration
Amount of blood drawn: 0.2-0.25 ml each time (from the jugular vein)
To 50 μl of rat plasma collected, 100 μl of acetonitrile and 50 μl of 0.4 N HCl were added in this order to make a total of 200 μl. After stirring, it was allowed to stand at room temperature for 1 hour. Subsequently, it was centrifuged (Funakoshi, Chibitan, 10,000 rpm, 10 minutes) at room temperature to collect 100 μl of the supernatant, to which 30 μl of 0.2 N NaOH, 20 μl of 1% Triton X-100, and 50 μl of 2 μg/ml of daunorubicin hydrochloride (Wako) (internal standard)/20 mM ammonium formate buffer (pH 3.0) was added in this order to make a total of 200 μl. The treatment sample liquid was filled into a HPLC sample vial, and subjected to HPLC analysis to determine the DOX concentration in the plasma.
To 50 μl of rat plasma collected, 100 μl of acetonitrile was added, centrifuged (Funakoshi, Chibitan, 10,000 rpm, 10 minutes) at room temperature to collect 50 μl of the supernatant, to which 100 μl of 2 μg/ml of daunorubicin hydrochloride (Wako) (internal standard)/20 mM sodium phosphate buffer (pH 7.4) was added. The treatment sample liquid was filled into a HPLC sample vial, and subjected to HPLC analysis to determine the DOX concentration in the plasma.
Using the values of the above (a) and (b), the concentration of polymer-conjugated DOX was calculated based on the following equation: (Polymer-conjugated DOX concentration)=(total DOX concentration)−(free DOX concentration) 4) Result of Determination of Concentration Change with Time in the Plasma
An amount between 10-20 mg each of 4 different polymers (8, 15, 20, and 39 DOX) was weighed accurately into a sample vial, to which 1 ml of dichloromethane was added to completely dissolve the polymer. Then, under the stream of nitrogen, the solvent was evaporated to prepare the polymer in the film form. Under reduced pressure, it was further dried at room temperature for 1 hour, and then 20 mM sodium phosphate buffer (pH 7.4)/5%(w/v) glucose was added to a polymer concentration of 10 mg/ml to hydrate the polymer film at 4° C. After stirring overnight at 4° C., it was subjected to ultrasonic treatment in ice chilled water for 10 minutes using the Biodisruptor (Nihonseiki Kaisha Ltd., High Power Unit). Subsequently, it was filtered with a 0.22 μm filter (Millipore, Millex™ GP PES) to prepare polymeric micelles of the filtrate, which were used in the subsequent experiment.

[1] = study on pH-dependency of drug release from polymeric micelles; assay type: physicochemical; conditions: 37° C.
Protocol: To 950 μl of 20 mM ammonium formate buffer (pH 3), sodium acetate buffer (pH 5), or sodium phosphate buffer (pH 7.4) previously heated to 37° C., 50 μl of the polymeric micelles prepared in the above method were added to initiate a drug release experiment. At predetermined timing, 50 μl of the sample was collected, and instead the liquid amount was replenished with the same buffer, The free DOX concentration in the collected sample was determined by HPLC according to the above-mentioned method.

[2] = system: Human prostate cancer PC-3 cells; assay: drug efficacy study: tumor volume in PC-3-xenografted nude mice; assay type: in vivo, male nude mice (Balb nu/nu); conditions: tail vein, every 4 days for a total of 3 times
Description: Human prostate cancer PC-3 cells subcutaneous transplanted to male nude mice were used as the model for evaluating drug efficacy.

[3] = side effects: changes in body weight of PC-3-xenografted nude mice; conditions: tail vein, every 4 days for a total of 3 times
Protocol: (§1) Male nude mice (Balb nu/nu, 5 weeks old) were purchased from Charles River Laboratories Japan, Inc., and human prostate cancer PC-3 cells were purchased from the Human Health Sciences Foundation Resources Bank. PC-3 cells that had been subcultured in a CO2 incubator were suspended in physiological saline for injection (Otsuka Pharmaceutical Co., Ltd.), and were subcutaneously injected into the back of the nude mice to a cell count of 2×10^6/50 μl per animal. Then, after keeping the nude mice for about 2 weeks, the administration of the drug was started when the mean of tumor volume reached about 50 mm^3.

[4] = MTD previously determined using normal healthy mice; assay type: in vivo
Protocol: as §1

| Molecule | AUC (in vivo; iv) [ng·h/mL] | retention in the plasma (in words) (in vivo; iv) | other results |
| --- | --- | --- | --- |
| MeO-PEG-pAsp (Hyd-DOX, Bn) [13DOX (Example 5a)] | 238000 |  | release of DOX from the micelles ([1]; pH 3, 20 mM ammonium formate buffer): rapidly released; release of DOX from the micelles ([1]; pH 5 to 7.4 (sodium acetate / sodium phosphate buffer)): the release rate decreased; T/C at the maximum (tumor volume of drug group to control group) ([2]; 11 mg/kg (MTD×⅔)): 0.32; decrease in body weight (maximum) ([3]; 11 mg/kg (MTD×⅔)): 15% |
| MeO-PEG-pAsp (Hyd-DOX, NH4) [12DOX (Comp. Ex. 7)] | 69500 |  | AUC relative to that of Example 5 (in vivo; iv): about ¼; increase in AUC compared to the DOX solution (in vivo; iv): about 500 fold |
| COc1cccc2c1C(=O)c1c(O)c3c(c(O)c1C2=O)C[C@@](O)(C(=O)CO)C[C@@H]3O[C@H]1C[C@H](N)[C@@H](O)[C@H](C)O1 [epirubicin hydrochloride] |  |  | AUC (in vivo; male, Wistar): 40 ng·h/mL |
| MeO-PEG-pAsp (Hyd-DOX, Bn) [8DOX (Example 5b)] | 149000 | persistent plasma concentration | concentration of free DOX relative to the total DOX concentration in plasma (in vivo; iv): about 1/100 |
| MeO-PEG-pAsp (Hyd-DOX, C8) [12DOX (Example 3)] | 90700 |  |  |
| MeO-PEG-pAsp (Hyd-DOX) [15DOX (Comp. Ex. 6)] | 7600 | relatively persistent retention in the plasma |  |
| MeO-PEG-pAsp (Hyd-DOX) [20DOX (Comp. Ex. 6)] | 3100 | rapidly disappear |  |
| MeO-PEG-pAsp (Hyd-DOX) [39DOX (Comp. Ex. 6)] | 1200 | rapidly disappear |  |
| COc1cccc2c1C(=O)c1c(O)c3c(c(O)c1C2=O)C[C@@](O)(C(=O)CO)C[C@@H]3O[C@H]1C[C@H](N)[C@H](O)[C@H](C)O1 [DOX solution (Comp. Ex. 12), doxorubicin hydrochloride] |  |  | T/C at the maximum (tumor volume of drug group to control group) ([2]; 5 mg/kg (MTD)): 0.4; MTD ([4]; mouse, in vivo, read-out: MTD): 5 mg/kg |
| MeO-PEG-pAsp (Hyd-DOX, C4-Phenyl) [6DOX (Example 7)] | 156000 |  |  |
| MeO-PEG-pAsp (Hyd-DOX) [8DOX (Comp. Ex. 5)] | 19100 | relatively persistent retention in the plasma |  |
| MeO-PEG-pAsp (Hyd-DOX) [Comparative Example 6] |  |  | T/C at the maximum (tumor volume of drug group to control group) ([2]; 15 mg/kg (MTD)): 0.42; MTD [4]: 15 mg/kg; decrease in body weight (maximum) ([3]; 15 mg/kg (MTD)): 13% |
| MeO-PEG-pAsp (amide-DOX) [13DOX (Amide) (Comp. Ex. 9)] | 57900 |  | AUC relative to that of Example 5 (in vivo; iv): about ¼; increase in AUC compared to the DOX solution (in vivo; iv): about 500 fold |
